Measurements as given in patent US20050267024A1 (published 2005).
Numbering of substitutions follows the chain as printed.

T1: VEGFR-3-Fc (human, UniProt P35916 25-328)
T1 construct: domain: first three Ig domains; used as conditioned supernatant of 293T cells; also called VEGFR-3-Fc fusion protein; not shown: Fc fragment of the pIg vector
T1 sequence (looked up): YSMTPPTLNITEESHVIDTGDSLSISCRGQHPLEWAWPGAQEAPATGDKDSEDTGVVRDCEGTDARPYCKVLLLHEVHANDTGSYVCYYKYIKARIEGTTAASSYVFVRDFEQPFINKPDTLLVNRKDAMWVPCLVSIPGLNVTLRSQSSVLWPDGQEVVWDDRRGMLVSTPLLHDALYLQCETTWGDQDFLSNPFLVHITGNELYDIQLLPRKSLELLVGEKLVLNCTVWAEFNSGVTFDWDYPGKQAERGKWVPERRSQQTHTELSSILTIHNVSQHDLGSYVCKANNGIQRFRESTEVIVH

B1: 12-3 (ligand)
chain: GQNHHEVVKFMDVYQRSYCHPIETLVDIFQEFGVATNTFFKPPCVSVYRCGGCCNSEGLQCVPTEESNITMQIMRIKPHQGQHIGEMSFLQHNKCECRPKKD
B2: 12-5 (ligand)
chain: B1 chain with S56D, Q60E, L90A, Q91N, N93T, K94S, E96R, R98M, P99S, K101L
B3: 22-16 (ligand)
chain: AHYNTEILKSIDNEWRKTQCMPREVCIDVGKEFGVATNTFFKPPCVSVYRCGGCCNSEGLQCMNTSTSYLSKTLFEITVPLSQGPKPVTISFANHTSCRCMSKLD
B4: 72-7 (ligand)
chain: GQNHHEVVKSIDNEWRKTQCMPREVCIDVGKEFGVATNTFFKPPCVSVYRCGGCCNSEGLQCVPTEESNITMQIMRIKPHQGQHIGEMSFANHTSCRCMSKLD
B5: 14-9 (ligand)
chain: GQNHHEVVKFMDVYQRSYCHPIETLVDIFQEFGVATNTFFKPSCVPLMRCGGCCNDEGLECVPTEESNITMQIMRITVPLSQGPKPVTISFLQHNKCECRPKKD
B6: 53-3 (ligand)
chain: AHYNTEILKSIDNEWRKTQCMPIETLVDIFQEYPDEIEYIFKPPCVSVYRCGGCCNSEGLQCVPTEESNITMQIMRIKPHQGQHIGEMSFLQHNKCECRPKKD
B7: 11-1 (ligand)
chain: GQNHHEVVKFMDVYQRSYCHPIETLVDIFQEYPDEIEYIFKPSCVPLMRCGGCCNDEGLECVPTEESNITMQIMRIKPHQGQHIGEMSFLQHNKCECRPKKD
B8: 12-1 (ligand)
chain: B1 chain with S56D, Q60E
B9: 83-15 (ligand)
chain: AHYNTEILKFMDVYQRSYCHPIETLVDIFQEYPDEIEYIFKPPCVSVYRCGGCCNSEGLQCVPTEESNITMQIMRITVPLSQGPKPVTISFANHTSCRCMSKLD
B10: 82-13 (ligand)
chain: B9 chain with Y32F, P33G, D34V, E35A, I36T, E37N, Y38T, I39F, S56D, Q60E
B11: 82-7 (ligand)
chain: AHYNTEILKFMDVYQRSYCHPIETLVDIFQEFGVATNTFFKPPCVSVYRCGGCCNSEGLQCVPTEESNITMQIMRIKPHQGQHIGEMSFANHTSCRCMSKLD
B12: 12-7 (ligand)
chain: B11 chain with A1G, H2Q, Y3N, N4H, T5H, I7V, L8V
B13: 82-9 (ligand)
chain: AHYNTEILKFMDVYQRSYCHPIETLVDIFQEFGVATNTFFKPPCVSVYRCGGCCNDEGLECVPTEESNITMQIMRITVPLSQGPKPVTISFLQHNKCECRPKKD
B14: 84-11 (ligand)
chain: B13 chain with P43S, S46P, V47L, Y48M, D56S, E60Q
B15: 12-11 (ligand)
chain: B5 chain with S43P, P46S, L47V, M48Y, D56S, E60Q
B16: 82-11 (ligand)
chain: B13 chain with D56S, E60Q
B17: 12-9 (ligand)
chain: B5 chain with S43P, P46S, L47V, M48Y
B18: 84-9 (ligand)
chain: B13 chain with P43S, S46P, V47L, Y48M
B19: 12-13 (ligand)
chain: GQNHHEVVKFMDVYQRSYCHPIETLVDIFQEFGVATNTFFKPPCVSVYRCGGCCNDEGLECVPTEESNITMQIMRITVPLSQGPKPVTISFANHTSCRCMSKLN
B20: 12-15 (ligand)
chain: B19 chain with D56S, E60Q, N104D
B21: 22-1 (ligand)
chain: AHYNTEILKSIDNEWRKTQCMPREVCIDVGKEFGVATNTFFKPPCVSVYRCGGCCNDEGLECVPTEESNITMQIMRIKPHQGQHIGEMSFLQHNKCECRPKKD
B22: 12-14 (ligand)
chain: GQNHHEVVKFMDVYQRSYCHPIETLVDIFQEFGVATNTFFKPPCVSVYRCGGCCNDEGLECMNTSTSYLSKTLFEITVPLSQGPKPVTISFANHTSCRCMSKLD
B23: 61-14 (ligand)
chain: GQNHHEVVKFMDVYQRSYCHPREVCIDVGKEYPDEIEYIFKPSCVPLMRCGGCCNDEGLECMNTSTSYLSKTLFEITVPLSQGPKPVTISFANHTSCRCMSKLD

Columns and labels:
Test in all cases: receptor-Fc IP
VEGFR-1-Fc = molecular target: T2, VEGFR-1-Fc (human, UniProt P17948 27-331)
T2 construct: domain: first three Ig domains; expressed in Drosophila S2 cells, purified on Protein A sepharose; also called VEGFR-1-Fc fusion protein; not shown: Fc fragment from the Signal-pIgPlus vector
Method: (§1) The binding assay procedure was identical to the immunoprecipitation using pentahistidine antibody described in Example 2, apart from the composition of the immunoprecipitation (IP) mixes. The IP mixes used for the receptor binding analysis were as follows: For VEGFR-1 binding assays, the IP mix was phosphate buffered saline (PBS) containing 1.5% BSA, 0.06% Tween 20, 3 μg/ml heparin and 400 ng/ml VEGFR-1-Fc fusion protein (100 μl of this IP mix was added to 200 μl of sample supernatant); for VEGFR-2 binding assays, the IP mix was 82% conditioned cell supernatant from 293T cells transiently expressing VEGFR-2-Fc fusion protein in mixture with 18% of a PBS solution that contained 5% BSA, 0.2% Tween 20, and 10 μg/ml heparin (250 μl of IP mix was added to 200 μl of sample supernatant); and for VEGFR-3 binding assays, the IP mix was 82% conditioned cell supernatant from 293T cells transiently expressing VEGFR-3-Fc fusion protein, 18% of PBS containing 5% BSA, 0.2% Tween 20, and 10 μg/ml heparin (250 μl of IP mix was added to 200 μl of sample supernatant).

VEGFR-2-Fc = molecular target: T3, VEGFR-2-Fc (human, UniProt P35968 20-322)
T3 construct: domain: first 3 Ig domains; used as conditioned supernatant of 293T cells; also called VEGFR-2-Fc fusion protein; not shown: Fc fragment of the pIg vector
Method: as §1

VEGFR-3-Fc = molecular target: T1, VEGFR-3-Fc
Method: as §1

T3 sequence (P35968 20-322): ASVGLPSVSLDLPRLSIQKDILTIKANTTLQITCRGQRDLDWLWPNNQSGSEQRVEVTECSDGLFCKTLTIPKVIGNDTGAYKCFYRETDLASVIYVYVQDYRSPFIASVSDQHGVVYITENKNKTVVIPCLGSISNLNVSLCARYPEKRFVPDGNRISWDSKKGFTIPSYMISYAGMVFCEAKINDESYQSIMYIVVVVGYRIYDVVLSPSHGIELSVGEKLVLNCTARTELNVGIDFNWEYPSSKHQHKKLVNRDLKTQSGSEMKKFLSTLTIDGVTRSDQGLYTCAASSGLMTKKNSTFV
T2 sequence (P17948 27-331): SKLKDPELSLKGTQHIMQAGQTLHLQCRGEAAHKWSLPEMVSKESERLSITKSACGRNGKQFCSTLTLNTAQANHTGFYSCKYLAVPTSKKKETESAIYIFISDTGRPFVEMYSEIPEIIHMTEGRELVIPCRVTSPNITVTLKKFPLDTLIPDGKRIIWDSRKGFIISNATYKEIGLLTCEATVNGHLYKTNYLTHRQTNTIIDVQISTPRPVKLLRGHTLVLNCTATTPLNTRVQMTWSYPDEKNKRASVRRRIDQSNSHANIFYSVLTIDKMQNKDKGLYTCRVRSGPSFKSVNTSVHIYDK

Row | Binder | binding result (VEGFR-1-Fc) | binding result (VEGFR-2-Fc) | binding result (VEGFR-3-Fc)
1 | B1 | binds | binds | no binding
2 | B2 | binds | no binding | no binding
3 | B3 | no binding | binds | binds
4 | B4 | no binding | no binding | no binding
5 | B5 | binds | binds | binds
6 | B6 | binds | binds | binds
7 | B7 | binds | binds | no binding
8 | B8 | binds | binds | binds
9 | B9 | binds | binds | no binding
10 | B10 | binds | no binding | binds
11 | B11 | binds | binds | binds
12 | B12 | binds | binds | binds
13 | B13 | binds | binds | binds
14 | B14 | binds | binds | binds
15 | B15 | binds | binds | binds
16 | B16 | binds | binds | binds
17 | B17 | binds | no binding | binds
18 | B18 | binds | binds | binds
19 | B19 | binds | no binding | binds
20 | B20 | no binding | binds | binds
21 | B21 | no binding | no binding | no binding
22 | B22 | no binding | no binding | binds
23 | B23 | no binding | no binding | no binding
